Assay results reported in the supplement of paper PMC11502859.

Test system: HEK293T
Assay: median enrichment of reporter reads in eGFP-reduced (low/intermediate) vs eGFP-high sorted cells (eGFP-extension fusion abundance) (ratio); higher = stronger loss of eGFP-fusion protein abundance (more destabilising extension)
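Further: lentiviral eGFP-IRES-mCherry reporter pool sorted by FACS 96 h post-transduction, gated on mCherry-high cells, Illumina read counts normalized per million, median across four biological replicates.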

## YIFYSHSVVQSSALGIYLCSQRSNSHLLYCLCLKEFESFLIFIIHLRTRDPCLAVWSKADYAAWRQDSDRASERAKSCQKETE [GABRA1]
  median enrichment: 10.4

## SGGLPRRAKMAEMILKITEEREDQPEFPLDICVFLFFYFVLFFLLLLLP [SOX9]
  median enrichment: 4.3

## LNGSI [PHF20L1]
  median enrichment: 0.416

## WDFGSF [TSPAN31]
  median enrichment: 0.573

## RYCSTQPNL [BRPF1]
  median enrichment: 3.69

## WPGGGKHREREWPSGNPAGYPNPKGSYSQRHILVFVIILYQK [VPS26C]
  median enrichment: 16.9

## WERPGGGAHWEGQDSVPALILPCPDVSCFAQRSFLSTPLIPRLVPREGWRPGHGPSRRGREGRRGRGRIEPIPAGEGEPSVHL [ASIC4]
  median enrichment: 1.34

## QGAGPWMVPVCLALGMAVEGTWQKQPHVLPCPRPGVDKTRGVFWSPPAELEASHCNFSAQGLLNRCERPVPRVSL [SLC6A13]
  median enrichment: 14.4

## LRKLILLIFMTNLYICF [RGS18]
  median enrichment: 14.1

## CQFKEKKM [PHTF2]
  median enrichment: 0.408

## CTRAGGGAERGAPPPLRSLALSRPSCSLSNF [POU3F2]
  median enrichment: 4.86

## CGGLVSELGLCRESLFCVSHPLPDPSLCLYSLNSVEFN [MCM3]
  median enrichment: 13.4

## LRCQLPSEQAGGICHTAPPLG [SMPD4]
  median enrichment: 2.92

## RAPVWMLLPRLQTTGSFPCPNPRRSFLEGSWALGTCVSCAYHRPRPPWISWIGVGE [TXNRD1]
  median enrichment: 10.1

## ESFHMIFCHIKHIVCLTVYRILKCSGCKTRDYLYAQNSYIFINEFNILFILVRAGQPFWVTQLIYQLIQIIEYIHNQADTS [PLS1]
  median enrichment: 11.2

## QQQQQ [Gln05]
  median enrichment: 0.381

## YKKVGTMRGRGL [Degron APPBP2]
  median enrichment: 16.9

## YCRREVSSLCLVCNSSWA [REG3A]
  median enrichment: 7.13

## WSRS [LCE3E]
  median enrichment: 1.42

## WGTKPRRIPPQ [CA10]
  median enrichment: 0.682

## YGDNSPVSKPGCQIQ [KIR3DL2]
  median enrichment: 3.37

## EEE [Glu03]
  median enrichment: 9.28

## YRNLENYTCFSEIITEYT [ABCD3]
  median enrichment: 11.4

## RAGPAPCPRSPLLSRPHPPPARPTRGATPPFESLAVGWTLPFPEAA [C1QL4]
  median enrichment: 13.1

## YPGGRVAAGGACAEAS [SLC7A5]
  median enrichment: 1.04

## WATLSVGFFLEDSTLLPHVLSQLQS [CSTF1]
  median enrichment: 4.6

## CARAALEAPARGICPYPSWKDSWMW [HCRTR1]
  median enrichment: 10.8

## LVSRPWGSCFPIPEFPCSPPPVVLPDLHLELSPPESPHRRPAMEPSPPGAPWGPSP [ALPG]
  median enrichment: 10.3

## YKPGGSSHSCSQGHWARAAHAQEARFEGICEAAACCCTCAFSLPLPSLSSHGGVRSCPCSESTFPAIPGAGGACASAIPCDQA [TSSK6]
  median enrichment: 3.81

## QHEKDWGGQGGQPAEMRGAGGHSPFSGLDPLRSSPTSCTDNAL [MAP3K9]
  median enrichment: 0

## AEWPGTCLKCLFPISLRDQEGILGMPLTSLLSRQQKWRGSQESALNCPPGWQGSLNRYLELGSGLFPCVLTTRASCSRAGIRG [F11R]
  median enrichment: 9.01

## WEKSYKCKECGKPLDDPQTLMNMRKFIL [ZNF141]
  median enrichment: 11.7

## GVPAHSCGKGGEGRRARPEQGAGGRAQYLTRAAVLINVPMAGPRSEPASSATVTFSLRDGGGGSLSRWLSRPRSRPWVLSQLG [DUSP9]
  median enrichment: 4.83

## YLFFFFLIEVLVL [FAM160A1]
  median enrichment: 25.1

## LELLPCPSFPPCTT [FEZF2]
  median enrichment: 1.27

## LRQRQHQCRACPAALSLHALRAPLLLRYPFETSGAGPLPASLTIPRPLSHLGLGKPDSTQDQGSHEARRLRGSCPFSYSRA [SHOX2]
  median enrichment: 5.48

## LGEMSLSFLLPF [C10orf82]
  median enrichment: 3.93

## WSFSHSSPSQRCDGRWTLSGEDALLLGRCSGSFSGARTEAPCDFRPGSMWACNFLHSQLGPIPGFKMVAIPEESP [SUSD1]
  median enrichment: 3.48

## KIMRHTV [TBC1D32]
  median enrichment: 6.86

## WPG [KDM8]
  median enrichment: 0.882

## WGGPNLDSFPALGHRRPGSSARQAWARRAPGRALSAAGARPRTSAGTRESLLGRSVNKPFFLLFFKNCFSH [DUOXA2]
  median enrichment: 5.58

## CGLPSGGGAMWLGS [SMYD1]
  median enrichment: 0.906

## YIMDWDILYFSC [UBA5]
  median enrichment: 13

## WWWWWWWWWW [Trp10]
  median enrichment: 4.65

## YALNINSVLQIFITYLLQSQNPKIFIKSKYLMSFEGSLSYTK [C10orf88]
  median enrichment: 1.47

## LIFFYQEG [PTEN]
  median enrichment: 5.69

## RESAGIEQSSPAQVSSLP [ZNF622]
  median enrichment: 0.239

## YTCGEGLSWTRPLPTASSLQVQLKPLSSGGRHVERAGRPTAAENRAGTGSSCSAFPSFGDAGSAAPKHLPAPHSTVSEDSSLL [CDC14B]
  median enrichment: 0.953

## YGRWEVSSLSLACSSSWT [REG3G]
  median enrichment: 6.24

## YEEVSATSPPEPAVIFTAPAHLSPTCSFDPWTWYTSMWSCWARGVLCAVNSVGSCSGVGARFLPPWAEGPFPLVLCPHPPPFS [KLHDC3]
  median enrichment: 5.82

## YGTDGRRGPGTPGMGGPNP [GATA2]
  median enrichment: 1.68

## GHAQAMNPQLSQMADRWSPAPIATCNSEKISLVTDQCHGGAC [SHISA3]
  median enrichment: 1.98

## YASLAAGTSTWRS [CRB2]
  median enrichment: 2.41

## YQFCPTSLSPQPLQSSVTCCGLYSGSALATSPNISSSFSPSDLTVQ [JOSD1]
  median enrichment: 7.58

## YGLQKNWPWGTKAFFSGLLPRP [KANK4]
  median enrichment: 43.3

## LVTGYVKSFNVVLKSKGLLITDSRIMCS [FEM1B]
  median enrichment: 11

## QFPTSELGNCTHSNPACSAS [MAS1L]
  median enrichment: 0.296

## CGHLSGPGALMEAIGTPELPSHS [ODF2]
  median enrichment: 0.872

## WFSPVICSINGLIINVSLRHDKHFNTQ [DNAAF1]
  median enrichment: 13.3

## CVF [LYRM7]
  median enrichment: 0.777

## CASTRAVGDSCPHLCPRAASCLALPPHSPPGMGLLLPGSLKETAAC [FAM160B2]
  median enrichment: 6.35

## TTTTTT [Thr06]
  median enrichment: 0.322

## CSLHLGGGSLGKSTQTCTTVQQQGSLLPAVPPPPVYTT [SEZ6]
  median enrichment: 19.3

## YTSGKKIFTCAGL [DDX46]
  median enrichment: 3.47

## RQTSQSSQPGLHPPWLPPAHMAPSTGLQPGAREL [HOOK2]
  median enrichment: 11.1

## YGRIMACLSPFLLQIKFSTHSFLLQIKFSTHSFFNTVL [OR2AG2]
  median enrichment: 49.9

## YFFLELKHPRMPLHVFHSPHLQTSLLFLTRPESKLPSLGNSGEGVSCTTYHTPSHPVSDFGMDSGKLGPSLNRVMYLNVCYFQ [HSPA1L]
  median enrichment: 10.9

## CGSRPGRPFARRRGMGERT [ARHGEF1]
  median enrichment: 7.51

## QPTGDPDLILNRRRLRDSRRHRSCPQWTPMNPSQPGPLTKTTRTSWELWDSLDSAVKDD [LILRB5]
  median enrichment: 1.48

## YNEK [PJVK]
  median enrichment: 0.295

## RETPTTPQPHRTNNSLQV [DCSTAMP]
  median enrichment: 0.265

## LIPVDPQGLAKARDTQREMLVIPLENLASNFLYV [KRT38]
  median enrichment: 39.9

## IVGPKGKEGKSAPRLGPGTHTPPDHLGNSRALRSRMLTKSNIQSLVNQDAVSPSVWQSVALAAGKLKADFHSYVHVDIHFRSS [RNF150]
  median enrichment: 4.94

## SSS [Ser03]
  median enrichment: 0.352

## RQEGRPHCFSHPFPLLPMGRGPGCRKSSYLQELHHNLEGSSWSCEFSLYSVTIPDHLIKMLPPSIGFIELVTS [NME1]
  median enrichment: 9.63

## RAGVCWHRQPPLWALGGPLKGSPTRGPDESFLSGVGSQRGSPPAAWGRAWPGRVIQRVCQPLTGSPSVAATRSTELLQPRGQL [FAM53B]
  median enrichment: 6.39

## YRRLPRAPPHSMTRLWIPHCTSHSPLSAPSPPCWSCSHTPGTGLGHPLLPACVFLILGRPG [KRT71]
  median enrichment: 6.31

## RAQLLRAQTPA [TNK1]
  median enrichment: 1.82

## QDSQLHRRLLPGLLLGRPPACPPCVSTPPARLPAGPSTPCVHTTSNLIGADVFIFLEFLFML [DDA1]
  median enrichment: 7.88

## YDGAVTERTQESGTPPGIPSTFSCSWERPGGGAHWEGQDSVPALILPCPDVSCFAQRSFLSTPLIPRLVPREGWRPGHGPSRR [ASIC4]
  median enrichment: 4.69

## KHHQSVKGLCGMQEFQTHGQSGLFFLVLRASSEHRSHIAAHREGWNEKWKRGSTFLLGDMNHLCSYYVIRNLVAWPYLAAREP [CFAP61]
  median enrichment: 4.22

## WVSAVLGTPAHSTLLEYLFPNATSVCFFLFPQSLSVSEPWAL [LALBA]
  median enrichment: 10.8

## LNFNKTFKITEIFKI [LIAS]
  median enrichment: 9.41

## SISL [NPAS4]
  median enrichment: 0.469

## LILYPSAMATRRTNNCPPLEVRLIEALDPNKIRIRICNGPGAVPHACHPSTLGG [RBPMS]
  median enrichment: 3.14

## KVPMSQPGLWLPSIPSPEMAPWDEEGRVGCWCRIKIWQDRLPQGHRPLPPTRTPPTQLPLRVL [ITGA7]
  median enrichment: 17.1

## SPPGPSPGSGTLVPNPERSALLP [VPS35L]
  median enrichment: 0.894

## LPSASGSVVGQALIPALWGGSLYSLFGGMVTEFIVEPFSVQMLWLQIRNPTSPG [GOLGA3]
  median enrichment: 4.27

## RSGLRRRRHRGE [Degron APPBP2]
  median enrichment: 6.28

## LSHA [CACNG6]
  median enrichment: 0.594

## SYGTLAPRHEARWPVFLNLKCKILLFPGPRRV [ICOS]
  median enrichment: 11

## WWW [Trp03]
  median enrichment: 2.55

## LADP [AKAP4]
  median enrichment: 0.662

## QCLCRIKCLLFYMHILKEKQRPEPRRG [RIOX2]
  median enrichment: 4.27

## DPTPLWGSGTLHCTGSLHTGRGTCAPTSETCRSPQLTCPTGAQHCTQLVGRTRACLRELPAGVMQGGGEVQGRGAGLSCHQHF [MAP3K11]
  median enrichment: 2.41

## EPGNPYSFSNTGSFI [ADAM30]
  median enrichment: 0.267

## GCGLNCRLTK [MYO16]
  median enrichment: 0.777

## RGKRAPVRRKGRRFRDVGGHPSPSRPCWGHGSGGGDMGPRQTASPTEHLDSNSVPGGAPTPPFSVSSCLFFFIFITKFHSF [ZFP36L2]
  median enrichment: 5.27

## WPEPLADITAGDEEPGLLLLLPVAPGVEVG [LIMD1]
  median enrichment: 12

## SIILSPFGSCVERECEIYIISFWERLVLDAP [HSP90B1]
  median enrichment: 10.5

## WLTAALAHSARGQDGGYLRPVLSCLFVFLIRDHVGLLRTRKAGKFPAGPSA [MKS1]
  median enrichment: 10.7

## SRSRDDALFSAIYPKLFQI [PCDHB5]
  median enrichment: 2.76

## YTCPYSSRALNLLLTNHLLRC [KCNU1]
  median enrichment: 11.9

## KKSSINVLSIGKYT [GRIN2A]
  median enrichment: 1.77

## WDSSPSPSDQGPSSSKPEAELPAHPCRPPKPTPPHPV [ARL8A]
  median enrichment: 1.02

## LGRLCPLPASLLCFPSPVSSLPSRPRHLPSVPWLSRTFYPTVRPQRGQDKPCPDAFDRQLCVLVDRCRNKEEMESAPEKLQIQ [H6PD]
  median enrichment: 6.07

## YIPNILGL [RASEF]
  median enrichment: 10.1
